Experimental data: patent publication US20240067747A1 (SHANGHAI HUAOTA BIOPHARMACEUTICAL, published 2024)

T1: Trypsin inhibitor type 1-S from Glycine max (Sigma, T-2327) (Glycine max, UniProt P01070 25-205)
T1 construct: Non-target molecule, amine-coupled to a CM5 chip
T1 sequence (looked up): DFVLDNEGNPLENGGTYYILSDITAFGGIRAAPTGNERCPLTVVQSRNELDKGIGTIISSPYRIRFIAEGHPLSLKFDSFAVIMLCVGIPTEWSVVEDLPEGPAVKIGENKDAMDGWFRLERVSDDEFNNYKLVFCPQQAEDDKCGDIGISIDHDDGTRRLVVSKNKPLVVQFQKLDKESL

T2: Cynomolgus CD73 protein (Novoprotein, item No. CI21) (cynomolgus, UniProt A0A2K5V5U7 27-547)
T2 construct: Bought protein
T2 sequence: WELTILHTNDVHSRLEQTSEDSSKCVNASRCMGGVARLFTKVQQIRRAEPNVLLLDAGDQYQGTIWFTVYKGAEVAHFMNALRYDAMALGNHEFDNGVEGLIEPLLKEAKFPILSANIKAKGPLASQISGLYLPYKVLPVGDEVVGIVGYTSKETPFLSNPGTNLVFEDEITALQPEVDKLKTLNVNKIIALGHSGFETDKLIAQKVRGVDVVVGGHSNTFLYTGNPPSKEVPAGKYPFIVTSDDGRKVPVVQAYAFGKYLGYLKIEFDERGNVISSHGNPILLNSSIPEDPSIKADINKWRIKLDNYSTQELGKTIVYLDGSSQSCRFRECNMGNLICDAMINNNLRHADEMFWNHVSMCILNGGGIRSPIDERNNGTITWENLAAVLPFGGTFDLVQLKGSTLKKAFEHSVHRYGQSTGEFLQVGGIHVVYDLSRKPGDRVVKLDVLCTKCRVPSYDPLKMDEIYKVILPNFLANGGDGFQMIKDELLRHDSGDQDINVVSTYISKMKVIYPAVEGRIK

T3: human CD73 on the cell surface of CHOK1-huCD73-3F4 cells (Huabo Biopharm) (human, UniProt P21589 27-549)
T3 construct: whole, on cells; also called cells expressing human CD73; CD73 on cell membrane
T3 sequence (looked up): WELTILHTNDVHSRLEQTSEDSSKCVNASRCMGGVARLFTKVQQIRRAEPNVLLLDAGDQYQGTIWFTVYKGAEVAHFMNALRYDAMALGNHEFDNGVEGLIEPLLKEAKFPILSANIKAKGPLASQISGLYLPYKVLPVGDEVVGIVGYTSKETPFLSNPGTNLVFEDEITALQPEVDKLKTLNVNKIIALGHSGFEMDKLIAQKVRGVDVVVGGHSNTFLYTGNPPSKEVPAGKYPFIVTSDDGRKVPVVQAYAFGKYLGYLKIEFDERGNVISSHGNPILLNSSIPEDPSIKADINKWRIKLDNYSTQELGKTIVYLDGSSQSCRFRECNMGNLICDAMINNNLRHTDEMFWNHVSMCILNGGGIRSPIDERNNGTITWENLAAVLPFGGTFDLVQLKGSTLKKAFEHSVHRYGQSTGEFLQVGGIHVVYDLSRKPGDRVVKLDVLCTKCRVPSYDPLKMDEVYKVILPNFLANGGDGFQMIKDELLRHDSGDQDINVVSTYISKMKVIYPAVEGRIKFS


How the values were obtained:
[1] = biological target: T1, Trypsin inhibitor type 1-S from Glycine …; experiment: SPR, Biacore 8K, trypsin inhibitor immobilized on CM5, antibody at 1000 nM; buffer alone 13.9 RU
Method: (§1) The non-specific adsorption effect of antigen-binding proteins and non-target molecules were determined by using the SPR method.
(§2) The series sensor chip CM5 (GE, #BR-1005-30) was equilibrated at room temperature for 20-30 min and then loaded into the Biacore 8K (GE) instrument. Lysozyme solution (Sigma, #L3790) from egg and trypsin inhibitor type 1-S (Sigma, #T-2327) from Glycine max were immobilized onto the CM5 chip using an amino coupling kit (GE, #BR-1000-50). The injection buffer was HBS-EP (1×) (GE, #BR-1006-69) and four equilibration cycles were set up. The polyclonal rabbit anti-lysozyme (ABcam, Ab391), anti-trypsin inhibitor antibodies (LifeSpan Biosciences, #LS-C76609), chimeric antibodies and humanized antibodies were diluted with equilibration buffer to 1000 nM, and the flow rate was set at 5 μL/min and injection channels 1, 2 and 3, Flow Cell 1 and 2 were selected. The association time was 10 min and the dissociation time was 10 min.
(§3) The PI of carboxymethyl dextran was 3.5, the PI of the trypsin inhibitor was 4.5, and the PI of lysozyme was 11.3. In the HBS-EP buffer solution with a pH of 7.4, carboxymethyl dextran and the trypsin inhibitor had strong negative charges, and lysozyme had strong positive charges.

[2] = biological target: T2, Cynomolgus CD73 protein (Novoprotein, …); experiment: SPR, Biacore T200, antibody captured on protein A chip, cynomolgus CD73 as analyte, 1:1 model
Method: In the tests, the assay buffer HBS-EP+ (pH 7.4) and the protein A chip (manufacturer: GE, item No.: 29-1275-56) were used.
The temperatures of a sample chamber and a flow path were set at 25° C., and the protein A chip respectively captured antigen-binding proteins as ligands and immobilized at about 100 RU. […] After association for 120 s at a flow rate of 30 μL/min, dissociation was carried out for 600 s. Regeneration was then carried out for 60 s with 10 mM Glycine (pH 1.5) at a flow rate of 50 μL/min to implement multi-cycle kinetic detection. A 1:1 binding model was selected for fitting analysis in a Fit local mode to acquire the association rate constant (ka), dissociation rate constant (kd) and dissociation equilibrium rate constant (KD).

[3] = biological target: T4, Lysozyme from chicken egg (Sigma, L3790) (chicken, UniProt P00698 19-147); experiment: SPR, Biacore 8K, lysozyme immobilized on CM5, antibody at 1000 nM; buffer alone 16.9 RU
T4 construct: Non-target molecule, amine-coupled to a CM5 chip
Method: as §1, §2, §3

[4] = biological target: T3, human CD73 on the cell surface of …; experiment: flow cytometry on CHOK1-huCD73-3F4 cells, PE-goat anti-human-Fc
Method: All antigen-binding proteins were diluted to 30 μg/ml with 1% BSA in PBS solution (1% BSA/PBS) and then 3-fold diluted for 11 gradients. The diluted antigen-binding proteins were added to a 96-well U-shaped plate at 20 μL per well; and a negative control (with 1% BSA/PBS added only) was set up at the same time. The suspension of cells (CHOK1-huCD73-3F4, Huabo Biopharm) expressing human CD73 during the logarithmic growth phase were centrifuged (1000 rpm×5 min) to discard the culture medium; and the cells were resuspended with 1% BSA/PBS until the density of viable cells was 1×10⁶/mL, and were added, at 20 μL (2×10⁴ cells) per well, to the 96-well U-shaped plate with the […] antigen-binding protein to react for 30 min at room temperature. After reaction, the 96-well U-shaped plate was resuspended with 1% BSA/PBS, centrifuged (300 g×3 min) to discard the supernatant, and washed once in such a way. PE-goat anti-human-Fc (Jackson ImmunoResearch, #109-115098) diluted at 1:200 was added to react for 15 min in the dark at room temperature. After reaction, the 96-well U-shaped plate was resuspended with 1% BSA/PBS, centrifuged (300 g×3 min) to discard the supernatant, washed three times in such a way, and finally resuspended with 100 μL of 1% BSA/PBS for each wall; and the fluorescence intensity of a PE channel was detected with a flow cytometer (BD, #Cantoll).

T4 sequence (P00698 19-147 limits assumed): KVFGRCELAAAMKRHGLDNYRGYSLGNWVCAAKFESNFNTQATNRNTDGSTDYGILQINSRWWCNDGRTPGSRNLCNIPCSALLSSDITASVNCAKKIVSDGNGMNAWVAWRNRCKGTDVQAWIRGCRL

Row | Binder | non-specific binding amount (RU) [1] [RU] | Kd [2] [pM] | koff [2] [s⁻¹] | kon [2] [M⁻¹ s⁻¹] | non-specific binding amount (RU) [3] [RU] | EC50 [4] [µg/mL]
1 | 900725 (humanized anti-CD73 antigen-binding protein) (antibody, V domains shown) VH: QVQLVQSGAEVKKPGASVKLSCKASGYTFTSYWIHWVRQAPGQGLEWIGMIHPNSGSTYYNEKFKGRATLTVDKSTSTAYMELSSLRSEDTAVYYCARYYGSDYEWYFDVWGQGTTVTVSS VL: DIQMTQSPSSMSASVGDRVTITCKASQNVRTAVVWYQQKPGKAPKALIYLASNRHTGVPDRFSGSGSGTDFTLTISSLQPEDFATYFCLQHWNYPYTFGQGTKLEIK | 12.6 | 368 | 0.000156 | 425000 | 20.3 | 0.106
2 | 900726 (humanized anti-CD73 antigen-binding protein) (antibody, V domains shown) VH: QVQLVQSGAEVKKPGASVKLSCKASGYTFTSYWIHWVRQAPGQGLEWIGMIHPNSGSTYYNEKFKGRATLTVDKSTSTAYMELSSLRSEDTAVYYCARYYGSDYEWYFDVWGQGTTVTVSS VL: DIQMTQSPSSLSASVGDRVTITCKASQNVRTAVVWYQQKPGKAPKALIYLASNRHTGVPDRFSGSGSGTDFTLTISSLQPEDFATYYCLQHWNYPYTFGQGTKLEIK | 15.4 | 2000 | 0.0032 | 1.6e+06 | 17.7 | 0.174
3 | 900727 (humanized anti-CD73 antigen-binding protein) (antibody, V domains shown) VH: QVQLVQSGAEVKKPGASVKVSCKASGYTFTSYWIHWVRQAPGQGLEWIGMIHPNSGSTYYAQKFQGRVTITVDKSTSTAYMELSSLRSEDTAVYYCARYYGSDYEWYFDVWGQGTTVTVSS VL: DIQMTQSPSSMSASVGDRVTITCKASQNVRTAVVWYQQKPGKAPKALIYLASNRHTGVPDRFSGSGSGTDFTLTISSLQPEDFATYFCLQHWNYPYTFGQGTKLEIK | 11.6 | 798 | 0.00074 | 927000 | 17.6 | –
4 | 900728 (humanized anti-CD73 antigen-binding protein) (antibody, V domains shown) VH: QVQLVQSGAEVKKPGASVKVSCKASGYTFTSYWIHWVRQAPGQGLEWIGMIHPNSGSTYYNEKFQGRVTMTVDKSTSTAYMELSSLRSEDTAVYYCARYYGSDYEWYFDVWGQGTTVTVSS VL: DIQMTQSPSSLSASVGDRVTITCKASQNVRTAVVWYQQKPGKAPKALIYLASNRHTGVPDRFSGSGSGTDFTLTISSLQPEDFATYYCLQHWNYPYTFGQGTKLEIK | 13.5 | 561 | 0.000381 | 678000 | 20.2 | 0.105
5 | 900567 (human-mouse chimeric anti-CD73 antigen-binding protein expressed from 124A9 variable regions) (antibody, V domains shown) VH: QVQLQQPGAELVKPGASVKLSCKASGYTFTSYWIHWVKQRPGQGLDWIGMIHPNSGSTYYNEKFKSKATLTVDKSSSTAYMQLSSLTSEDSAVYYCARYYGSDYEWYFDVWGTGTTVTVSS VL: DIVMTQSQKFMSTSVGDRVSITCKASQNVRTAVVWYQQNPGQSPKALIYLASNRHTGVPDRFTGSGSGTDFTLTISNVHSEDLADYFCLQHWNYPYTFGGGTKLEIK | 12.8 | 709 | 0.000606 | 855000 | 15.8 | 0.065
